EC50 and EC50 (read off the curve) data for one molecule are collected here from patent US20230365684A1.

In test [1] the target is human CD33 on cells (MOLM-13, Kasumi-1, OCI-AML-3, Kasumi-3) (human) (UniProt P20138). Nature of the test: flow cytometry on Kasumi-1 cells, 4 °C, serial dilutions of the antibody. For orientation: A flow cytometer gives signals particle by particle.
For test [2] the target is unchanged. Nature of the test: flow cytometry on OCI-AML-3 cells, 4 °C, serial dilutions of the antibody.
The target is the same in test [3]. Nature of the test: flow cytometry on MOLM-13 cells, 4 °C, detection with PE goat F(ab')2 anti-human IgG-Fc.
Test [4] shares this target. Nature of the test: flow cytometry on MOLM-13 cells, 4 °C, serial dilutions of the antibody.

As usually defined, the EC50 is the midpoint of the concentration-response curve. The low end stands for greater potency, the high end for weaker potency. A word on the EC50 (read off the curve): it is the concentration at which the effect is half-maximal.

Chain of human CD33 on cells (MOLM-13, Kasumi-1, OCI-AML-3, Kasumi-3) (human) (P20138 18-364): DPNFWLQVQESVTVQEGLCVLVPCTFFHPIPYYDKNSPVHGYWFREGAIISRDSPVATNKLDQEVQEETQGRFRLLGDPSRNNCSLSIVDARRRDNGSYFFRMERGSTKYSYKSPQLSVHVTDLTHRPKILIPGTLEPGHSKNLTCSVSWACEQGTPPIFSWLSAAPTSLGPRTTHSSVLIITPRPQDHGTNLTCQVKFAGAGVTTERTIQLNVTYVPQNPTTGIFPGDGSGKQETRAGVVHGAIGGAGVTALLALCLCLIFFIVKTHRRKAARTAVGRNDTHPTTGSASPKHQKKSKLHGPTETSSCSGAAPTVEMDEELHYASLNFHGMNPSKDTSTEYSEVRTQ

B1: Lintuzumab (antibody, part only; not given: constant regions, V domains shown, not shown: another chain or arm of the molecule)
VH: QVQLVQSGAEVKKPGSSVKVSCKASGYTFTDYNMHWVRQAPGQGLEWIGYIYPYNGGTGYNQKFKSKATITADESTNTAYMELSSLRSEDTAVYYCARGRPAMDYWGQGTLVTVSS
VL: DIQMTQSPSSLSASVGDRVTITCRASESVDNYGISFMNWFQQKPGKAPKLLIYAASNQGSGVPSRFSGSGSGTDFTLTISSLQPDDFATYYCQQSKEVPWTFGQGTKVEIK
With B1, the EC50 in test [1] is 340 pM; in test [2], 900 pM; in test [4], 310 pM. In addition, the EC50 (read off the curve) in test [3] turned out to be 0.04 µg/mL.
